T1: GST-Bem1p (yeast, UniProt P29366 1-551)
T1 sequence (looked up): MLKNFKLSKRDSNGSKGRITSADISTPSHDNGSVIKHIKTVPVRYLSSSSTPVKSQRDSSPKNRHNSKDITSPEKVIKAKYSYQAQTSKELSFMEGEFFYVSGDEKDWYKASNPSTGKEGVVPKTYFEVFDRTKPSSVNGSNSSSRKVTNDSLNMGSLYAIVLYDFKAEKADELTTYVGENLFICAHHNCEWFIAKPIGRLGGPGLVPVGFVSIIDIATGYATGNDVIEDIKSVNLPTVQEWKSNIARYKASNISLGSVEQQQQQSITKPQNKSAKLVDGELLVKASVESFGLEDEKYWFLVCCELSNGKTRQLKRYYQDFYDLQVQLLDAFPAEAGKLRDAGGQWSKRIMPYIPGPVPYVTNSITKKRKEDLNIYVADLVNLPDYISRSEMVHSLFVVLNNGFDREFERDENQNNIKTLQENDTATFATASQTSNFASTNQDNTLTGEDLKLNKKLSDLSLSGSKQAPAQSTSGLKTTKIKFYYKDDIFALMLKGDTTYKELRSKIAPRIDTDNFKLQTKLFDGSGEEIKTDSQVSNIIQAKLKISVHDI


Tests used:
[1] = target: GST-Exo70p (yeast, UniProt P19658 1-623); experiment: pull-down
[2] = target: T1, GST-Bem1p; experiment: pull-down

Chain of GST-Exo70p (P19658 whole entry): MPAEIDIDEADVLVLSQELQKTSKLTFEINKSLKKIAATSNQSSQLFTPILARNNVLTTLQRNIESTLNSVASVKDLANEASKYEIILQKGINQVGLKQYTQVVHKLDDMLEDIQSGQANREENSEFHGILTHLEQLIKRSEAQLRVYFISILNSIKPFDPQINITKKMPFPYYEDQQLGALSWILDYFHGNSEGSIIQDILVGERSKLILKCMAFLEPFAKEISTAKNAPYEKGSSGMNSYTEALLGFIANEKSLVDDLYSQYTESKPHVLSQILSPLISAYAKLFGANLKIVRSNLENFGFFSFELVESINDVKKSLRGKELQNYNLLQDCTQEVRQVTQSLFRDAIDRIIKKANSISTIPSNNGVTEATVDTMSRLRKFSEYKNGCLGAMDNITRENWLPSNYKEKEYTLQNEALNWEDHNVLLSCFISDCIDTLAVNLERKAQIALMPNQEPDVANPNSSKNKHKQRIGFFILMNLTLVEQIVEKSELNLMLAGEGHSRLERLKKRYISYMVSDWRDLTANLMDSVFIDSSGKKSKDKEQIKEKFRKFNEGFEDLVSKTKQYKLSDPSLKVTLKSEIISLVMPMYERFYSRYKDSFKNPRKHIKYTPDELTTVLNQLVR

Kd [1] [nM]	binding result [2]	Binder
~260	–	Bem1p-His6 (natural protein, yeast, UniProt P29366 1-551, looked up) MLKNFKLSKRDSNGSKGRITSADISTPSHDNGSVIKHIKTVPVRYLSSSSTPVKSQRDSSPKNRHNSKDITSPEKVIKAKYSYQAQTSKELSFMEGEFFYVSGDEKDWYKASNPSTGKEGVVPKTYFEVFDRTKPSSVNGSNSSSRKVTNDSLNMGSLYAIVLYDFKAEKADELTTYVGENLFICAHHNCEWFIAKPIGRLGGPGLVPVGFVSIIDIATGYATGNDVIEDIKSVNLPTVQEWKSNIARYKASNISLGSVEQQQQQSITKPQNKSAKLVDGELLVKASVESFGLEDEKYWFLVCCELSNGKTRQLKRYYQDFYDLQVQLLDAFPAEAGKLRDAGGQWSKRIMPYIPGPVPYVTNSITKKRKEDLNIYVADLVNLPDYISRSEMVHSLFVVLNNGFDREFERDENQNNIKTLQENDTATFATASQTSNFASTNQDNTLTGEDLKLNKKLSDLSLSGSKQAPAQSTSGLKTTKIKFYYKDDIFALMLKGDTTYKELRSKIAPRIDTDNFKLQTKLFDGSGEEIKTDSQVSNIIQAKLKISVHDI
–	binds	His6-MBP-Cdc24^781-854p (domain or fragment, yeast, UniProt P11433 781-854, looked up) FTLLVEKVWNFDDLIMAINSKISNTHNNNISPITKIKYQDEDGDFVVLGSDEDWNVAKEMLAENNEKFLNIRLY

— paper PMC4195821 (The Journal of Cell Biology, 2014)
